Biological target: T1, Human CD137 ECD (human)
T1 construct: also called 4-1BB
Experiment: single mutant vs template dBBDu183H

T1 sequence (chain, as listed by the source limits assumed): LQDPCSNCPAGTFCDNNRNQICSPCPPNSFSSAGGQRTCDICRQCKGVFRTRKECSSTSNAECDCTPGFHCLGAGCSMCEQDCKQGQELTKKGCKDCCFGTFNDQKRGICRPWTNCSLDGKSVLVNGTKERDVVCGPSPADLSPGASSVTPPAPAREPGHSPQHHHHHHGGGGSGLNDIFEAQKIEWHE

fold change of affinity [fold] | Binder
0.8 | H183/L072 VH A56R (antibody, name in Kabat numbering, V domains shown) VH: QVQLVESGGGLVQPGRSLRLSCAASGFTFSNAWMHWVRQAPGKGLEWVAQIKDKGNAYRAYYAPSVKGRFTISRDDSKNSIYLQMNSLKTEDTAVYYCHYVHYASASTVLPAFGVDAWGQGTTVTVSS VL: DIVMTQSPLSLPVTPGEPASISCQASQELVHMNRNTYLHWYQQKPGQAPRLLIYKVSNRFPGVPDRFSGSGSGTDFTLKISRVEAEDVGVYYCAQGTSVPFTFGQGTKLEIK
0.4 | H183/L072 VH A56T (antibody, name in Kabat numbering, V domains shown) VH: QVQLVESGGGLVQPGRSLRLSCAASGFTFSNAWMHWVRQAPGKGLEWVAQIKDKGNAYTAYYAPSVKGRFTISRDDSKNSIYLQMNSLKTEDTAVYYCHYVHYASASTVLPAFGVDAWGQGTTVTVSS VL: DIVMTQSPLSLPVTPGEPASISCQASQELVHMNRNTYLHWYQQKPGQAPRLLIYKVSNRFPGVPDRFSGSGSGTDFTLKISRVEAEDVGVYYCAQGTSVPFTFGQGTKLEIK
0.3 | H183/L072 VH A57N (antibody, name in Kabat numbering, V domains shown) VH: QVQLVESGGGLVQPGRSLRLSCAASGFTFSNAWMHWVRQAPGKGLEWVAQIKDKGNAYANYYAPSVKGRFTISRDDSKNSIYLQMNSLKTEDTAVYYCHYVHYASASTVLPAFGVDAWGQGTTVTVSS VL: DIVMTQSPLSLPVTPGEPASISCQASQELVHMNRNTYLHWYQQKPGQAPRLLIYKVSNRFPGVPDRFSGSGSGTDFTLKISRVEAEDVGVYYCAQGTSVPFTFGQGTKLEIK
0.9 | H183/L072 VH A57G (antibody, name in Kabat numbering, V domains shown) VH: QVQLVESGGGLVQPGRSLRLSCAASGFTFSNAWMHWVRQAPGKGLEWVAQIKDKGNAYAGYYAPSVKGRFTISRDDSKNSIYLQMNSLKTEDTAVYYCHYVHYASASTVLPAFGVDAWGQGTTVTVSS VL: DIVMTQSPLSLPVTPGEPASISCQASQELVHMNRNTYLHWYQQKPGQAPRLLIYKVSNRFPGVPDRFSGSGSGTDFTLKISRVEAEDVGVYYCAQGTSVPFTFGQGTKLEIK
1.2 | H183/L072 VH A57D (antibody, name in Kabat numbering, V domains shown) VH: QVQLVESGGGLVQPGRSLRLSCAASGFTFSNAWMHWVRQAPGKGLEWVAQIKDKGNAYADYYAPSVKGRFTISRDDSKNSIYLQMNSLKTEDTAVYYCHYVHYASASTVLPAFGVDAWGQGTTVTVSS VL: DIVMTQSPLSLPVTPGEPASISCQASQELVHMNRNTYLHWYQQKPGQAPRLLIYKVSNRFPGVPDRFSGSGSGTDFTLKISRVEAEDVGVYYCAQGTSVPFTFGQGTKLEIK
0.8 | H183/L072 VH A57S (antibody, name in Kabat numbering, V domains shown) VH: QVQLVESGGGLVQPGRSLRLSCAASGFTFSNAWMHWVRQAPGKGLEWVAQIKDKGNAYASYYAPSVKGRFTISRDDSKNSIYLQMNSLKTEDTAVYYCHYVHYASASTVLPAFGVDAWGQGTTVTVSS VL: DIVMTQSPLSLPVTPGEPASISCQASQELVHMNRNTYLHWYQQKPGQAPRLLIYKVSNRFPGVPDRFSGSGSGTDFTLKISRVEAEDVGVYYCAQGTSVPFTFGQGTKLEIK
0.3 | H183/L072 VH A56W (antibody, name in Kabat numbering, V domains shown) VH: QVQLVESGGGLVQPGRSLRLSCAASGFTFSNAWMHWVRQAPGKGLEWVAQIKDKGNAYWAYYAPSVKGRFTISRDDSKNSIYLQMNSLKTEDTAVYYCHYVHYASASTVLPAFGVDAWGQGTTVTVSS VL: DIVMTQSPLSLPVTPGEPASISCQASQELVHMNRNTYLHWYQQKPGQAPRLLIYKVSNRFPGVPDRFSGSGSGTDFTLKISRVEAEDVGVYYCAQGTSVPFTFGQGTKLEIK
0.9 | H183/L072 VH A57E (antibody, name in Kabat numbering, V domains shown) VH: QVQLVESGGGLVQPGRSLRLSCAASGFTFSNAWMHWVRQAPGKGLEWVAQIKDKGNAYAEYYAPSVKGRFTISRDDSKNSIYLQMNSLKTEDTAVYYCHYVHYASASTVLPAFGVDAWGQGTTVTVSS VL: DIVMTQSPLSLPVTPGEPASISCQASQELVHMNRNTYLHWYQQKPGQAPRLLIYKVSNRFPGVPDRFSGSGSGTDFTLKISRVEAEDVGVYYCAQGTSVPFTFGQGTKLEIK
0.5 | H183/L072 VH A57R (antibody, name in Kabat numbering, V domains shown) VH: QVQLVESGGGLVQPGRSLRLSCAASGFTFSNAWMHWVRQAPGKGLEWVAQIKDKGNAYARYYAPSVKGRFTISRDDSKNSIYLQMNSLKTEDTAVYYCHYVHYASASTVLPAFGVDAWGQGTTVTVSS VL: DIVMTQSPLSLPVTPGEPASISCQASQELVHMNRNTYLHWYQQKPGQAPRLLIYKVSNRFPGVPDRFSGSGSGTDFTLKISRVEAEDVGVYYCAQGTSVPFTFGQGTKLEIK
1 | H183/L072 VH A57P (antibody, name in Kabat numbering, V domains shown) VH: QVQLVESGGGLVQPGRSLRLSCAASGFTFSNAWMHWVRQAPGKGLEWVAQIKDKGNAYAPYYAPSVKGRFTISRDDSKNSIYLQMNSLKTEDTAVYYCHYVHYASASTVLPAFGVDAWGQGTTVTVSS VL: DIVMTQSPLSLPVTPGEPASISCQASQELVHMNRNTYLHWYQQKPGQAPRLLIYKVSNRFPGVPDRFSGSGSGTDFTLKISRVEAEDVGVYYCAQGTSVPFTFGQGTKLEIK
0.5 | H183/L072 VH A57H (antibody, name in Kabat numbering, V domains shown) VH: QVQLVESGGGLVQPGRSLRLSCAASGFTFSNAWMHWVRQAPGKGLEWVAQIKDKGNAYAHYYAPSVKGRFTISRDDSKNSIYLQMNSLKTEDTAVYYCHYVHYASASTVLPAFGVDAWGQGTTVTVSS VL: DIVMTQSPLSLPVTPGEPASISCQASQELVHMNRNTYLHWYQQKPGQAPRLLIYKVSNRFPGVPDRFSGSGSGTDFTLKISRVEAEDVGVYYCAQGTSVPFTFGQGTKLEIK
0.1 | H183/L072 VH A57I (antibody, name in Kabat numbering, V domains shown) VH: QVQLVESGGGLVQPGRSLRLSCAASGFTFSNAWMHWVRQAPGKGLEWVAQIKDKGNAYAIYYAPSVKGRFTISRDDSKNSIYLQMNSLKTEDTAVYYCHYVHYASASTVLPAFGVDAWGQGTTVTVSS VL: DIVMTQSPLSLPVTPGEPASISCQASQELVHMNRNTYLHWYQQKPGQAPRLLIYKVSNRFPGVPDRFSGSGSGTDFTLKISRVEAEDVGVYYCAQGTSVPFTFGQGTKLEIK
0.6 | H183/L072 VH A57T (antibody, name in Kabat numbering, V domains shown) VH: QVQLVESGGGLVQPGRSLRLSCAASGFTFSNAWMHWVRQAPGKGLEWVAQIKDKGNAYATYYAPSVKGRFTISRDDSKNSIYLQMNSLKTEDTAVYYCHYVHYASASTVLPAFGVDAWGQGTTVTVSS VL: DIVMTQSPLSLPVTPGEPASISCQASQELVHMNRNTYLHWYQQKPGQAPRLLIYKVSNRFPGVPDRFSGSGSGTDFTLKISRVEAEDVGVYYCAQGTSVPFTFGQGTKLEIK
0.3 | H183/L072 VH A56Y (antibody, name in Kabat numbering, V domains shown) VH: QVQLVESGGGLVQPGRSLRLSCAASGFTFSNAWMHWVRQAPGKGLEWVAQIKDKGNAYYAYYAPSVKGRFTISRDDSKNSIYLQMNSLKTEDTAVYYCHYVHYASASTVLPAFGVDAWGQGTTVTVSS VL: DIVMTQSPLSLPVTPGEPASISCQASQELVHMNRNTYLHWYQQKPGQAPRLLIYKVSNRFPGVPDRFSGSGSGTDFTLKISRVEAEDVGVYYCAQGTSVPFTFGQGTKLEIK
0.9 | H183/L072 VH A57K (antibody, name in Kabat numbering, V domains shown) VH: QVQLVESGGGLVQPGRSLRLSCAASGFTFSNAWMHWVRQAPGKGLEWVAQIKDKGNAYAKYYAPSVKGRFTISRDDSKNSIYLQMNSLKTEDTAVYYCHYVHYASASTVLPAFGVDAWGQGTTVTVSS VL: DIVMTQSPLSLPVTPGEPASISCQASQELVHMNRNTYLHWYQQKPGQAPRLLIYKVSNRFPGVPDRFSGSGSGTDFTLKISRVEAEDVGVYYCAQGTSVPFTFGQGTKLEIK
0.7 | H183/L072 VH A57M (antibody, name in Kabat numbering, V domains shown) VH: QVQLVESGGGLVQPGRSLRLSCAASGFTFSNAWMHWVRQAPGKGLEWVAQIKDKGNAYAMYYAPSVKGRFTISRDDSKNSIYLQMNSLKTEDTAVYYCHYVHYASASTVLPAFGVDAWGQGTTVTVSS VL: DIVMTQSPLSLPVTPGEPASISCQASQELVHMNRNTYLHWYQQKPGQAPRLLIYKVSNRFPGVPDRFSGSGSGTDFTLKISRVEAEDVGVYYCAQGTSVPFTFGQGTKLEIK
0.7 | H183/L072 VH A56S (antibody, name in Kabat numbering, V domains shown) VH: QVQLVESGGGLVQPGRSLRLSCAASGFTFSNAWMHWVRQAPGKGLEWVAQIKDKGNAYSAYYAPSVKGRFTISRDDSKNSIYLQMNSLKTEDTAVYYCHYVHYASASTVLPAFGVDAWGQGTTVTVSS VL: DIVMTQSPLSLPVTPGEPASISCQASQELVHMNRNTYLHWYQQKPGQAPRLLIYKVSNRFPGVPDRFSGSGSGTDFTLKISRVEAEDVGVYYCAQGTSVPFTFGQGTKLEIK
0.9 | H183/L072 VH A57Q (antibody, name in Kabat numbering, V domains shown) VH: QVQLVESGGGLVQPGRSLRLSCAASGFTFSNAWMHWVRQAPGKGLEWVAQIKDKGNAYAQYYAPSVKGRFTISRDDSKNSIYLQMNSLKTEDTAVYYCHYVHYASASTVLPAFGVDAWGQGTTVTVSS VL: DIVMTQSPLSLPVTPGEPASISCQASQELVHMNRNTYLHWYQQKPGQAPRLLIYKVSNRFPGVPDRFSGSGSGTDFTLKISRVEAEDVGVYYCAQGTSVPFTFGQGTKLEIK
0.1 | H183/L072 VH A57F (antibody, name in Kabat numbering, V domains shown) VH: QVQLVESGGGLVQPGRSLRLSCAASGFTFSNAWMHWVRQAPGKGLEWVAQIKDKGNAYAFYYAPSVKGRFTISRDDSKNSIYLQMNSLKTEDTAVYYCHYVHYASASTVLPAFGVDAWGQGTTVTVSS VL: DIVMTQSPLSLPVTPGEPASISCQASQELVHMNRNTYLHWYQQKPGQAPRLLIYKVSNRFPGVPDRFSGSGSGTDFTLKISRVEAEDVGVYYCAQGTSVPFTFGQGTKLEIK
0.2 | H183/L072 VH A56V (antibody, name in Kabat numbering, V domains shown) VH: QVQLVESGGGLVQPGRSLRLSCAASGFTFSNAWMHWVRQAPGKGLEWVAQIKDKGNAYVAYYAPSVKGRFTISRDDSKNSIYLQMNSLKTEDTAVYYCHYVHYASASTVLPAFGVDAWGQGTTVTVSS VL: DIVMTQSPLSLPVTPGEPASISCQASQELVHMNRNTYLHWYQQKPGQAPRLLIYKVSNRFPGVPDRFSGSGSGTDFTLKISRVEAEDVGVYYCAQGTSVPFTFGQGTKLEIK
0.5 | H183/L072 VH A57V (antibody, name in Kabat numbering, V domains shown) VH: QVQLVESGGGLVQPGRSLRLSCAASGFTFSNAWMHWVRQAPGKGLEWVAQIKDKGNAYAVYYAPSVKGRFTISRDDSKNSIYLQMNSLKTEDTAVYYCHYVHYASASTVLPAFGVDAWGQGTTVTVSS VL: DIVMTQSPLSLPVTPGEPASISCQASQELVHMNRNTYLHWYQQKPGQAPRLLIYKVSNRFPGVPDRFSGSGSGTDFTLKISRVEAEDVGVYYCAQGTSVPFTFGQGTKLEIK
